Among the data in article PMC9352680, “A comprehensive thermodynamic model for RNA binding by the Saccharomyces cerevisiae Pumilio protein PUF4” are Kd values, retold here.

As usually defined, the Kd is the equilibrium constant for the complex coming apart. Higher therefore signals a looser complex.

Where a chain is given by its changes, count along the chain named. Numbers in names are those of the source.

For the data set, the target named is T1, PUF4 RNA-binding domain (Saccharomyces cerevisiae, UniProt P25339 537-888).
T1 sequence: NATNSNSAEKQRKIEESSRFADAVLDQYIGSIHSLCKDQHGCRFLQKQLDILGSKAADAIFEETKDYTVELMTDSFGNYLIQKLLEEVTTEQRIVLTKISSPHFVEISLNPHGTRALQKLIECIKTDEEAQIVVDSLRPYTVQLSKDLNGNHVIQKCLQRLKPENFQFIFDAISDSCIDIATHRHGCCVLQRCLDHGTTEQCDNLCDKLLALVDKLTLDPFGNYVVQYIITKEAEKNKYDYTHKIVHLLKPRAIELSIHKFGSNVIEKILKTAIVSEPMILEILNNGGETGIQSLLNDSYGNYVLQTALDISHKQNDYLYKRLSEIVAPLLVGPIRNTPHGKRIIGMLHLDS
Put plainly: Mg; RNA-MaP; 20 mM Na-HEPES pH 7.4, 30 mM KOAc, 0.75 mM MgCl2, 0.1% Tween-20, 5% glycerol, 0.1 mg/mL BSA, 2 mM DTT; 25 C; 0.0125-409.6 nM protein. Particulars: tags: N-His6-TEV cleaved; C-SNAP kept, Cy3B-labelled; label: tethered on chip by stalled RNA polymerase.

B1: Id_ii_S2_P4E.4_K4.3_C4.2_[T-1A]_H4.3_A4.1_F4.1_T4.2_[G10T]_[T11A] (ssRNA)
RNA: UUUGAUUAAUAUGAUAUCGUUCUUUCUCAACACUAUUAUAUUCUUUCUCGAUAUCAUAUUAAUCUUU
As to B1, the Kd turned out to be 748 nM.

B2: Id_ii_S2_P4E.4_K4.3_C4.2_H4.3_A4.1_F4.1_T4.2_[G10C]_[T11A] (ssRNA)
RNA: B1 RNA with A29U, U39C
The molecule B2 gave a dissociation constant Kd of 471 nM.

B3: Id_ii_S2_P4E.4_K4.3_C4.2_H4.3_A4.1_F4.1_T4.2_[G10C]_[T11C] (ssRNA)
RNA: B1 RNA with A29U, U39C, A40C
For the molecule B3, binding was characterised by a dissociation constant (Kd) of 563 nM.

B4: Id_ii_S2_P4E.4_K4.3_C4.2_H4.3_A4.1_F4.1_T4.2_[G10T] (ssRNA)
RNA: B1 RNA with A29U, A40U
B4 returned a dissociation constant Kd of 528 nM.

B5: Id_ii_S2_P4E.4_K4.3_C4.2_H4.3_A4.1_F4.1_T4.2_[G10T]_[T11A] (ssRNA)
RNA: B1 RNA with A29U
B5 yielded a Kd of 459 nM.

B6: Id_ii_S2_P4E.4_K4.3_C4.2_[T-1A]_H4.3_A4.1_F4.1_T4.2_[G10A] (ssRNA)
RNA: B1 RNA with U39A, A40U
On to B6, for which the dissociation constant Kd is above 2300 nM.

B7: Id_ii_S2_P4E.4_K4.3_C4.2_[T-1A]_H4.3_A4.1_F4.1_T4.2_[T11C] (ssRNA)
RNA: B1 RNA with U39G, A40C
For B7, the Kd is above 2300 nM.

B8: Id_ii_S2_P4E.4_K4.3_C4.2_H4.3_A4.1_F4.1_T4.2_[G10C]_[T11G] (ssRNA)
RNA: B1 RNA with A29U, U39C, A40G
B8: the equilibrium dissociation constant (Kd) was above 2300 nM.

B9: Id_ii_S2_P4E.4_K4.3_C4.2_H4.3_A4.1_F4.1_T4.2_[T11C] (ssRNA)
RNA: B1 RNA with A29U, U39G, A40C
Regarding B9, binding was characterised by a dissociation constant (Kd) of 1620 nM.

B10: Id_ii_S2_P4E.4_K4.3_C4.2_[T-1A]_H4.3_A4.1_F4.1_T4.2_[G10A]_[T11C] (ssRNA)
RNA: B1 RNA with U39A, A40C
As to B10, the affinity, expressed as Kd, was 2240 nM.

B11: Id_ii_S2_P4E.4_K4.3_C4.2_H4.3_A4.1_F4.1_T4.2 (ssRNA)
RNA: B1 RNA with A29U, U39G, A40U
B11 returned an equilibrium dissociation constant (Kd) above 2300 nM.

B12: Id_ii_S2_P4E.4_K4.3_C4.2_[T-1A]_H4.3_A4.1_F4.1_T4.2 (ssRNA)
RNA: B1 RNA with U39G, A40U
Molecule B12 registered a Kd above 2300 nM.

B13: Id_ii_S2_P4E.4_K4.3_C4.2_H4.3_A4.1_F4.1_T4.2_[G10A] (ssRNA)
RNA: B1 RNA with A29U, U39A, A40U
In turn, B13 had a Kd of 498 nM.

B14: Id_ii_S2_P5E.2_K5.1_C5.2_[C-2G]_[T-1C]_H5.1_A5.1_F5.1_T5.2_[T11A]_[A12C] (ssRNA)
RNA: UUUGAUUAAUAUGAUAUCGUUCUUUCUGCUGUAUUAUUAACUUCUUUCUCGAUAUCAUAUUAAUCUUU
The molecule B14 returned an equilibrium dissociation constant (Kd) of 25.4 nM.

B15: Id_ii_S2_P5E.2_K5.1_C5.2_[C-2G]_[T-1C]_H5.1_A5.1_F5.1_T5.2_[T11A] (ssRNA)
RNA: B14 RNA with C41A
As to B15, the Kd stood at 7.06 nM. Compared with the last molecule, the Kd is about 3.6-fold lower.

B16: Id_ii_S2_P5E.2_K5.1_C5.2_[C-2G]_H5.1_A5.1_F5.1_T5.2_[T11G]_[A12T] (ssRNA)
RNA: B14 RNA with C29U, A40G, C41U
On to B16, for which the Kd was determined as 3.05 nM. This Kd lies about 2.3-fold lower than the previous one.

B17: Id_ii_S2_P5E.2_K5.1_C5.2_[C-2G]_[T-1C]_H5.1_A5.1_F5.1_T5.2_[A12C] (ssRNA)
RNA: B14 RNA with A40U
B17 yielded a dissociation constant (Kd) of 11.2 nM.

B18: Id_ii_S2_P5E.2_K5.1_C5.2_[C-2G]_[T-1C]_H5.1_A5.1_F5.1_T5.2_[T11A]_[A12T] (ssRNA)
RNA: B14 RNA with C41U
B18: the affinity, expressed as Kd, was 3.35 nM. This Kd is about 3.3-fold lower than that of the molecule before.

B19: Id_ii_S2_P5E.2_K5.1_C5.2_[C-2G]_H5.1_A5.1_F5.1_T5.2_[T11A]_[A12T] (ssRNA)
RNA: B14 RNA with C29U, C41U
In the case of B19, the Kd was found to be 3.86 nM.

B20: Id_ii_S2_P5E.2_K5.1_C5.2_[C-2G]_[T-1C]_H5.1_A5.1_F5.1_T5.2_[A12T] (ssRNA)
RNA: B14 RNA with A40U, C41U
Molecule B20 displayed a Kd of 3.07 nM. The Kd values of the last two molecules are within 1.5-fold of each other.
The figure for UCUCUUUGUAAUAAUAUCUCUU (ssRNA) [Ib_S1_P5E.1_K5.1_C5.1_H5.1_A5.1_[T5A]_F5.1_[T8A]_T5.1] is 17.8 nM; for UCUCUUUGUACUAAUAUCUCUU (ssRNA) [Ic_S1_P5E.1_K5.1_C5.1_H5.1_A5.1_[T5C]_F5.1_[T8A]_T5.1] it is 12.5 nM.
